The test deals with H-2K^b (mouse (endogenous in RMA-S)). As to the kind of experiment: flow cytometry on cells. (In flow cytometry, cells or beads pass a laser one at a time.)

Starred links: 1 amine or outer side, 2 acyl side, 3 side chain; linkers in the order of their positions; H or OH if unused. Non-standard residues stand in square brackets, D forms with d. No end group written: not given here. βAsp = O=C(O)[C@H](CC(=O)[*:2])N[*:1]

B1: ca3_(isoasp) (peptide)
peptide: I[βAsp]FDFPKL
Turning to B1, the fold decrease of H-2Kb display against ca3 was greater than 100 fold.

The values above are taken from publication doi:10.1101/2025.11.06.687013.
